The RNAGym collection of RNA variant scans (doi:10.7554/elife.80360)

B1: Hammerhead Ribozyme (parent)
chain: ACCGGAUGUGCUUUCCGGUCUGAUGAGUCCGUGAGGACGAAACAG

Variants of: B1
Assay: self-cleavage, relative activity (ratio to wild type); higher = more cleavage; co-transcriptional

| Variant | self-cleavage |
| --- | --- |
| ACCGGAUGUGCUUUCCGUUCUGAUGAGUCCGUGAGUACGAAACAG [G18U G36U] | 0.425 |
| ACCGGAUGUGCUUUCCGGUGUGAUGAGUCCGUGAGGACGACACAG [C20G A41C] | 0.329 |
| ACCGGAUGUGCUUUCAGGUCUGAUGAGUCCGUGAGGACGAAACCG [C16A A44C] | 0.563 |
| ACCGGAUGUGCUUUCCGGUCUGAUGAGUCCGUGAGGACGAAACCG [A44C] | 0.663 |
| AUCGGAUGUGCUUACCGGUCUGAUGAGUCCGUGAGGACGAAACAG [C2U U14A] | 0.8 |
| ACCGGAUGUGCUCUCCGGUCUGAUGAUUCCGUGAGGACGAAACAG [U13C G27U] | 0.673 |
| ACCGGAUGUGCUUUCCGGACUGAUGAGUCCGUGAGGACGAUACAG [U19A A41U] | 0.308 |
| ACCGGAUGUGCUGUCCGGUCUGAUUAGUCCGUGAGGACGAAACAG [U13G G25U] | 0.303 |
| ACCGGAUGUGCUUUCGGGUCUUAUGAGUCCGUGAGGACGAAACAG [C16G G22U] | 0.334 |
| ACCCGAUGUGCUUUCCGGUCUGAUGAGUCCGUGAGGACGAAACAU [G4C G45U] | 0.4 |
| UCCGGAUGUGCUUUCUGGUCUGAUGAGUCCGUGAGGACGAAACAG [A1U C16U] | 0.431 |
| ACUGGAUGUGCUUUCGGGUCUGAUGAGUCCGUGAGGACGAAACAG [C3U C16G] | 0.492 |
| ACCGGAUGUGCUUUCCGGGCUGAUGAGUCCGUGAGGACUAAACAG [U19G G39U] | 0.305 |
| ACCGGAUGCGCUUUCCGGUUUGAUGAGUCCGUGAGGACGAAACAG [U9C C20U] | 0.504 |
| ACCGGAUGUGCUUUCCGGUCUGAUGAGUCCGUGAAUACGAAACAG [G35A G36U] | 0.427 |
| ACCGGAUGUGCUUUCCGGUCUGUGGAGUCCGUGAGGACGAAACAG [A23U U24G] | 0.251 |
| ACCGGAUGUGCUUUCCGGUCUAAUGAGUCCGUGAGGACGACACAG [G22A A41C] | 0.383 |
| ACCGGAUGUGCUUUCCGGUCUCAUGAGUCCGUGAGGAUGAAACAG [G22C C38U] | 0.315 |
| ACCGGAUCUGCUUUCCGGUCUGAUGAGUCCGGGAGGACGAAACAG [G8C U32G] | 1.23 |

| Variant | self-cleavage |
| --- | --- |
| ACCGGACGUGCUUUCCGGUCUGAUGAGUCCUUGAGGACGAAACAG [U7C G31U] | 1.1 |
| ACCGGUUGUGCUUUCCGGUCUGCUGAGUCCGUGAGGACGAAACAG [A6U A23C] | 0.368 |
| ACCAGAUGUGCUUUCCGGUCUGAUGAGUCCGUGAUGACGAAACAG [G4A G35U] | 0.382 |
| ACCGGAUGUGCUUACCGGUCAGAUGAGUCCGUGAGGACGAAACAG [U14A U21A] | 0.542 |
| ACCGGAUGUGAUUCCCGGUCUGAUGAGUCCGUGAGGACGAAACAG [C11A U14C] | 1.17 |
| ACCGGAUGUGCUUUCCGGUCUGAUGAGACCGUGGGGACGAAACAG [U28A A34G] | 0.516 |
| ACCGGAUGUGCUGUCCGGUCUGAUGAGUCCGUGAGGACGAAACCG [U13G A44C] | 0.567 |
| ACCGGAUGUGCUUUCCGAUCUGAUGAGUCCGUGAGGGCGAAACAG [G18A A37G] | 0.676 |
| ACAGGAUGUGCUUUCCGGUCUGAUGAGUCCGUGAGGACGAAAGAG [C3A C43G] | 0.261 |
| ACCGGAUGUGCUUUCCGCUCUGAUGAGUCCGUCAGGACGAAACAG [G18C G33C] | 0.616 |
| ACCGGAUGUCCUUUCCGGUCUGAUGAGUCCGUGAGGACUAAACAG [G10C G39U] | 0.307 |
| ACGGGAUGUGCUUUCCGGUCUGAUGAGUCCGUGACGACGAAACAG [C3G G35C] | 0.248 |
| ACAGGAUGUGCUUUCCGGUCUGAUGAGUCCGUGAGGAUGAAACAG [C3A C38U] | 0.515 |
| ACCGGAUGUGCUUGCUGGUCUGAUGAGUCCGUGAGGACGAAACAG [U14G C16U] | 0.849 |
| CCCGGUUGUGCUUUCCGGUCUGAUGAGUCCGUGAGGACGAAACAG [A1C A6U] | 0.381 |
| ACCGGAUGUGCAUGCCGGUCUGAUGAGUCCGUGAGGACGAAACAG [U12A U14G] | 0.565 |
| ACCGGAUGUGCUGUCCGGUCUGAUGAGACCGUGAGGACGAAACAG [U13G U28A] | 0.673 |
| ACCGGAUGUGCUUUCCGCUCUGAUGAGUCCGAGAGGACGAAACAG [G18C U32A] | 0.554 |
| ACCGGCUGUGCUUUCCGGUCUGAUCAGUCCGUGAGGACGAAACAG [A6C G25C] | 0.24 |

| Variant | self-cleavage |
| --- | --- |
| ACCGGAUGUGCUUUCCGGUCUGAUGAGUCCGUGAGGGGGAAACAG [A37G C38G] | 0.79 |
| ACCGGAUGUGCUUUCCGGUCUGAUGAGUCGGCGAGGACGAAACAG [C30G U32C] | 0.581 |
| ACCGGAUAUGCUUGCCGGUCUGAUGAGUCCGUGAGGACGAAACAG [G8A U14G] | 0.988 |
| ACUGGAUGUGCUUUACGGUCUGAUGAGUCCGUGAGGACGAAACAG [C3U C15A] | 0.486 |
| ACCGGAUGUGCUUUCCGGUCUGAUGAGUCCCUGAGGACGAAACCG [G31C A44C] | 0.441 |
| ACCGGAUGUUCUUUACGGUCUGAUGAGUCCGUGAGGACGAAACAG [G10U C15A] | 0.817 |
| ACCGGAUGUGCUUUCCGGUCUGAUGAGUCAGUGAGGACGAGACAG [C30A A41G] | 0.347 |
| ACCGGAUGUGCUUUCCGGUCUGAUGAGUCAGUUAGGACGAAACAG [C30A G33U] | 0.995 |
| ACCCGAUGUGCUUUCCGGUCUGACGAGUCCGUGAGGACGAAACAG [G4C U24C] | 0.631 |
| ACCGGAUGUGCUUUCCUGUCUGAUGAGUCCGUGAGCACGAAACAG [G17U G36C] | 0.336 |
| ACCGGAUGUGCUUUCCGGUCUGAUGAGACCGUGAGGACGAAACAC [U28A G45C] | 0.365 |
| ACCGGAUCUGCUUUCCGGUCUGAUGAGUACGUGAGGACGAAACAG [G8C C29A] | 0.548 |
| ACCGGAUGUGCUUUCCGGUCUGCUGAGUGCGUGAGGACGAAACAG [A23C C29G] | 0.369 |
| ACGGGAUGUGCUUUCCGGUCUGAGGAGUCCGUGAGGACGAAACAG [C3G U24G] | 0.44 |
| ACCGGAUGUGCUAUCCGGUCUGAUGAGUCCGUGAGGACGAAACCG [U13A A44C] | 0.619 |
| CCCGGAUGUGCUUUCCGGUCUGAUGAGUGCGUGAGGACGAAACAG [A1C C29G] | 0.341 |
| ACCGGAUGUUCUUUCCGGUCUGAUGGGUCCGUGAGGACGAAACAG [G10U A26G] | 0.317 |
| ACCGGAUGUUCUUUCCGGUCUGAUGCGUCCGUGAGGACGAAACAG [G10U A26C] | 0.439 |
| CCCGGAUGUGCUUUCAGGUCUGAUGAGUCCGUGAGGACGAAACAG [A1C C16A] | 0.453 |
